molecular target: protein A56 (Vaccinia virus, UniProt Q01218)

Molecule | Western blot band on denatured protein | Western blotting, binding affinity in a two-dimensional structure using PAGE
Ab19 (protein, amino acid sequence for anti-UTTA scFv (Ab19)) scFv: QVQLVESGAEVRRPGSSVKVSCKTSGVTFSGYVLSWVRQAPGHGLEWMGRIIPLIDVENYAREFQGRMKITADKSTNTVYMELNNLRSEDTAVYYCAKSVVRGLDYYYYGFDVWGQGTTVTVSSGLGGLGGGGSGGGGSGGSSGVGSSYELTQPPSLSVAPGKTARITCGGNNIGSKSVHWYQQKPGQAPRLVTYYDGNRPSGIPERFSGSNSGNTATLIISRVEAGDEADYYCQVWDSSSDQGVFGTGTKVTVL | many weak bands with small sizes were observed or no band was observed | a linear single band was identified
Ab13 (protein, amino acid sequence for anti-UTTA scFv (Ab13)) scFv: QMQLVESGAEVKKTGSSVKVSCKASGDTLTYRFLHWVRQAPGQAPEWMGWITPFNDNTNYAQKFQDRVTITRDRSMSTAYMELSSLRSEDTAVYYCATGGGNNYYGMEVWGQGTPITVSSGLGGLGGGGSGGGGSGGSSGVGSSYELTQPLSLSVSPGQTASITCSGDKLGDKFTSWYQQQPGQSPVLVIYQDAKRPSGIPERFSGSNSGSTATLTISGTQSMDEADYYCQAWDSSSVVFGGGTKLTVL | many weak bands with small sizes were observed or no band was observed | binding did not occur
Ab18 (protein, amino acid sequence for anti-UTTA scFv (Ab18)) scFv: QVQLVESGGGLVQPGKSLRLSCAASGFTFSTYGMTWVRQAPGKGLEWVSGISGGGSSTNYADSVKGRFIISRDNSNNTLYLQMNSLRAEDTAVYYCARWGVMLSFDYWGQGTPVTVSSGLGGLGGGGSGGGGSGGSSGVGSDIQMTQSPSTLPASVGDRVTITCRASYSVSPWLAWYQQKPGKAPKLLIYKASTLESGVPSRFSGSGSGTEFTLTISSLQPDDFATYYCQQFNSYMMYTFGQGTKLEIK | – | linear multiple bands were identified
Ab16 (protein, amino acid sequence for anti-UTTA scFv (Ab16)) scFv: QVQLQQSGPGLVKPSQTLSLTCAISGDSVSSNSAAWNWIRQSPSRGLEWLGRTYYRSKWYNDYAVSVKSRITINPDTSKNQFSLQLNSVTAVDTAVYYCAKSYAGPISYYYYGLDVWGQGTTVTVSSGLGGLGGGGSGGGGSGGSSGVGSQSALTQPASVSGSPGQSVTISCTGTSSDIGRYNLVSWYQQHPGKAPKLMIYGGSKRPSGVSNRFSGSNSDNTASLTISGLRAEDEADYYCSSYASSSTPYVFGTGTKVTVL | many weak bands with small sizes were observed or no band was observed | linear multiple bands were identified
